Patent US20250283063, “NOVEL CRISPR-CAS12I SYSTEMS AND USES THEREOF” (HUIDAGENE THERAPEUTICS (SINGAPORE) PTE. LTD., published 2025)
Where a chain is given by its changes, count along the chain named.

Tests used:
xCas12i-D892R (v4.3) = target: T1, xCas12i-D892R (v4.3) (D892R); experiment: cell_activity; HEK293T EGFP reporter; settings: tags: NLS
T1 chain: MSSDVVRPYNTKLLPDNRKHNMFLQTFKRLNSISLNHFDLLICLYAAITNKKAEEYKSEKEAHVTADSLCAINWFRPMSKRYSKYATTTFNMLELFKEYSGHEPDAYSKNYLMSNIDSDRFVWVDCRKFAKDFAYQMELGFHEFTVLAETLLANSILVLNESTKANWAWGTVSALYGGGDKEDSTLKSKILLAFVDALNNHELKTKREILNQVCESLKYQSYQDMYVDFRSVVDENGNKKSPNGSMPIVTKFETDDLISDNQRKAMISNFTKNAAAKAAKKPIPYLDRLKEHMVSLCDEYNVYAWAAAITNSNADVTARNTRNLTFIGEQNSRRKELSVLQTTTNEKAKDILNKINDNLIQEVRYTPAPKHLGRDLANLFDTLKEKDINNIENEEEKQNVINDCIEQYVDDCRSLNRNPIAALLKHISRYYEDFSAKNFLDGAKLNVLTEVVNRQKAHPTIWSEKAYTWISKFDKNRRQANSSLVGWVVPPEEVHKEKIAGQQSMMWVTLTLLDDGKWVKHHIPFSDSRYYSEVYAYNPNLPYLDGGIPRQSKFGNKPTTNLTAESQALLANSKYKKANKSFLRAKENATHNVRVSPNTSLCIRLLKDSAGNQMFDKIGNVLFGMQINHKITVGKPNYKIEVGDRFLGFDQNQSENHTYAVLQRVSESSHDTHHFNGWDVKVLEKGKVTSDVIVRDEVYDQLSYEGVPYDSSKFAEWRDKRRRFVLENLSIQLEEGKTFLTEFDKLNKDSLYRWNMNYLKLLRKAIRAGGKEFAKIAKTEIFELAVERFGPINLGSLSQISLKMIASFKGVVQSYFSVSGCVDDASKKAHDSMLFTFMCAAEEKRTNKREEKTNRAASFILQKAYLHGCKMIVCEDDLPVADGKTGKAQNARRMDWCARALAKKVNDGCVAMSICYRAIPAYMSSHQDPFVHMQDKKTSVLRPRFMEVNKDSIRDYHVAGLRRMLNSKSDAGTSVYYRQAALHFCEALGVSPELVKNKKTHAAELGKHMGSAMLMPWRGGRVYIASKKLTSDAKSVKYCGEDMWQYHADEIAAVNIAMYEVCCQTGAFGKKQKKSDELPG
From the text: (§1) To vary xCas12i's dsDNA cleavage activity and/or expand its scope of PAM site recognition, the applicant engineered xCas12i protein via mutagenesis and screened for mutants with various dsDNA cleavage activity and broader PAM using a dual plasmid fluorescent reporter system similar to the dual plasmid fluorescent reporter system in Example 1, except that the EGxxxxFP-targeting guide RNA (SEQ ID NO: 51; “crON/crRNA On-target”) coding sequence operably linked to U6 promoter was not located on the expression plasmid together with the xCas12i (or its mutant) coding sequence (SEQ ID NO: 31) but located on the reporter plasmid together with the BFP-P2A-EGxxxxFP coding sequence (SEQ ID NO: 41) (referring to “On-Target Reporter” in FIG. 1B). […] The applicant then individually transfected the expression plasmid and the reporter plasmid into HEK293T cells and analyzed them by FACS (FIG. 1B). […]

xCas12i-E875R = target: T2, xCas12i-E875R (E875R); experiment: cell_activity; RuvC catalytic residue; cleavage readout; settings: tags: NLS
T2 chain: T1 chain with E875R, R892D
From the text: as §1

B1: crEGFP DR-T1 ; EGxxxxFP reporter target (ssRNA ; dsDNA)
RNA: AUGACUCAGAAAUGUGUCCCCAGUUGACACCCAUUACAGUAGGAGCAUAC
DNA 1: GGATCCGTGTCTTTCCCATTACAGTAGGAGCATACGGGAGACAAGCTTTG
DNA 2: CAAAGCTTGTCTCCCGTATGCTCCTACTGTAATGGGAAAGACACGGATCC
binding signal (xCas12i-D892R (v4.3)): 1.42 relative to WT
binding signal (xCas12i-E875R): 0.1 relative to WT
